Earlier results on one substance are cited in paper PMC4737190.

Where “and” joins values, the source holds several entries; their conditions need not be identical. Identical values can stand only once.

In the data set the target is linear (Met1-linked) di-ubiquitin (Homo sapiens) (UniProt P0CG47).

Chain of NEMO UBAN (Q9Y6K9 242-350): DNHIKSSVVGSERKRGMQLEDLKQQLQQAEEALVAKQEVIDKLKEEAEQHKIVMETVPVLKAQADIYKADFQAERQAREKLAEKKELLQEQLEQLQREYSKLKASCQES

The term Kd denotes a measure of binding affinity in units of concentration. With NEMO UBAN (from UniProt Q9Y6K9), the Kd was 1600 nM and 3700 nM.
